Data taken from US20180022822A1, “NOVEL ANTI-FIBROBLAST ACTIVATION PROTEIN (FAP) BINDING AGENTS AND USES THEREOF” (Mabimmune Diagnostics AG, priority 2016, published 2018).

Experiments:
[1] = tested on: arterial occlusion (thrombosis); experiment: carotid artery photochemical injury-induced thrombosis model; type: in vivo, mouse
Method: The carotid artery photochemical injury-induced thrombosis model begins with anesthesia by intraperitoneal injection of sodium pentobarbital (87 mg/kg body weight). After slight tail warming (using warm water) rose bengal (10 mg/mL in PBS) is injected into the tail vein in a volume of 0.12 mL at a concentration of 50 mg/kg. Mice will then be secured in a supine position (with the head pointing towards the operator) and placed on a heating pad (rectal temperature will be monitored) under a dissecting microscope. Following a (2.5-3 cm) midline cervical incision and a small incision of the larynx to provide a tracheostoma, by blunt preparation the right common carotid artery is exposed and cleared of connective tissue. A surgical stitch is employed to fix the sternocleidomastoid muscle aside to the right and increase access area to the right carotid artery. Care must be taken to avoid excessive vessel manipulation during procedures. Curved-tip tweezers will be employed to slide under the vessel (from the left side) and gently lift it so as to place the probe under and around it. The probe will be placed as proximal as the access area allows it to be and its connection wire should then be placed on a micromanipulator to fine-adjust its position. (The probe should be perfectly aligned with the vessel so as not to cause any resistance to flow). Little surgical ultrasonic gel should be applied on top of the probe to increase signal quality. Within 6 minutes of Rose Bengal injection, a laser beam will be aimed at the carotid artery and kept at fixed distance of 6 cm for 60 minutes. Flow will be measured during these 60 minutes and for further 60 minutes (max time elapse 120 minutes) or until occlusion occurs. Occlusion is considered as a constant (≧1 min) flow below 0.1 ml/min. Mice are euthanized by an overdose of pentobarbital immediately (25 mg) after the occlusion analysis is completed.
Mice will be placed on a heating pad, to avoid a drop of body temperature. Heart rate (probe measuring the blood flow will also measure the heart rate) will be monitored during the surgery. Anethesia depth will be checked before starting the surgery and during the experiment by pedal withdrawal reflex (animals hind limb will be extended and the interdigital webbing of the foot will firmly pinched by the use of an atraumatic forceps; if there is no withdrawal reaction to the toe pinch, animals will be judged deep enough).
The chosen dose of anesthesia sodium pentobarbital (87 mg/kg body weight) is sufficient to keep the animal in deep anesthesia for the whole duration of the experiment. No second dosing is necessary. […]

[2] = target: T1, recombinant human FAP (Homo sapiens, UniProt Q12884); experiment: mechanism of inhibition of rhuFAP-mediated PEP (Z-Gly-Pro-AMC) cleavage; type: biochemical; details: 0-1000 nM antibody, 20-100 μM Z-Gly-Pro-AMC; Lineweaver-Burk
T1 construct: purchased Sino Biologicals 10464-H07H
T1 sequence (Q12884 26-760 limits assumed): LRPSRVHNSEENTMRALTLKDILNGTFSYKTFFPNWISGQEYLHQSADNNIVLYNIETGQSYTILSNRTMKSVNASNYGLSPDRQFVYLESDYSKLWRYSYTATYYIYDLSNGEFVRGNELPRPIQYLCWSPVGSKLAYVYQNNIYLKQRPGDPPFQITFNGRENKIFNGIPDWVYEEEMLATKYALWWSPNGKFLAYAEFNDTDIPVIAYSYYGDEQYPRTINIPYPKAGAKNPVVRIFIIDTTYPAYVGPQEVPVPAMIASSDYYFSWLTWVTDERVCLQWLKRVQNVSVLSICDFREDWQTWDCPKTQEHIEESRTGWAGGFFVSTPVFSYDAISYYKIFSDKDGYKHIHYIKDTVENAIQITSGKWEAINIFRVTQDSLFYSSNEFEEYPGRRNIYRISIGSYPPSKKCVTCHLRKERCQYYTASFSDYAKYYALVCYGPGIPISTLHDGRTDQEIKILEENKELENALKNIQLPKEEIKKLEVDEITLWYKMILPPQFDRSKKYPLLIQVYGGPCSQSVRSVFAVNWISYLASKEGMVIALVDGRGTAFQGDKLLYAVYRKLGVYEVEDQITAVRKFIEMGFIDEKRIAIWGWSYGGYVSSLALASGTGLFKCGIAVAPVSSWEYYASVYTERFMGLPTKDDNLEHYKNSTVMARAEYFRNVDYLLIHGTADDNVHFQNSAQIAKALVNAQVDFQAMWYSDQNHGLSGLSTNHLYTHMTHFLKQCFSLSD
Method: A black flat bottom standard 96-well ELISA plate was blocked for 1 hr at 37° C. using sterile blocking buffer: 5% bovine serum albumin (BSA) in phosphate buffered saline (PBS). 10 μL of recombinant human FAP solution: 0.4 nM recombinant human FAP (Sino Biologicals, 10464-H07H), in 225 mM Sodium phosphate buffer, pH 7.4) was added to each well. Then, 80 μL of NI-206.82C2 at the indicated concentrations in PBS were added to the wells incubated for 1 hr at 37° C. Then, 10 μL of fluorogenic substrate solution (Z-Gly-Pro-AMC in 40% methanol and 60% 25 […]) was added to each well. The fluorescence intensity was measured at 360 nm excitation and 460 nm emission every 3 min over a total reading time of 2 hr.

type of inhibition of FAP-mediated PEP cleavage [2]: non-competitive inhibitor
B1: NI-206.82C2: human-derived recombinant anti-FAP antibody; VH SEQ ID NO: 2 or 4 (PIMC), VL SEQ ID NO: 6 (antibody, V domains shown)
VH: QVQLQQSGPGLVKPSQTLSLTCAISGDSVSSNSVTWNWIRQSPSRGLEWLGRTYYRSKWYNDYAVSVKGRITINPDTSKNQFYLQLKSVTPEDAAVYYCARDSSILYGDYWGQGTLVTVSS
VL: QAVLTQPSSLSASPGASASLTCTLPSGINVGTYRIFWFQQKPGSPPQYLLSYKSDSDNHQGSGVPSRFSGSKDASANAGILLISGLQSEDEADYYCMIWHSSAWVFGGGTKLTVL
occlusion time ([1]; 20 mg/kg i.v. versus vehicle control, n=4): significantly prolonged
median time to occlusion ([1]; 2, 7 and 20 mg/kg versus PBS and 43A11): dose-dependent increase
Log-rank hazard ratio of arterial occlusion ([1]; versus 43A11 isotype control): 0.04
dose at which significant increase in median time to occlusion starts ([1]; versus PBS and 43A11 at 20 mg/kg): 2 mg/kg
